Reference: paper PMC10266124 (mAbs, 2023)

Legend:
Test in all cases: electrochemiluminescence
[1] = molecular target: SARS-CoV-2 spike protein, Delta *2 (B.1.617.2; AY.4.2) (SARS-CoV-2, Delta B.1.617.2; AY.4.2 …, L452R)
[2] = molecular target: SARS-CoV-2 spike protein, Delta *3 (B.1.617.2; AY.3; AY.5; AY.6; AY.7; AY.14) (SARS-CoV-2, Delta (B.1.617.2; AY.3; …, L452R)
[3] = molecular target: SARS-CoV-2 spike protein, Delta *1 (B.1.617.2; AY.4) (SARS-CoV-2, Delta B.1.617.2; AY.4 …, L452R)
[4] = molecular target: SARS-CoV-2 spike protein, Gamma (P.1) (SARS-CoV-2, Gamma (P.1), E484K)

Row | Binder | relative binding (% of that to Wuhan spike, from AUCs) [1] | relative binding (% of that to Wuhan spike, from AUCs) [2] | relative binding (% of that to Wuhan spike, from AUCs) [3] | relative binding (% of that to Wuhan spike, from AUCs) [4]
1 | mAb21 (S2A4) (antibody, V domains shown) VH: EVQLVESGGGLVQPGGSLRLSCAASGFTFSSYWMNWVRQAPGKGLEWVANIKQDGSEKYYVDSVKGRFTISRDNAKNSLFLQMNSLRAEDTAVYYCARVWWLRGSFDYWGQGTLVTVSS VL: NFMLTQPHSVSESPGKTVTISCTGSSGSIASNYVQWYQQRPGSAPTTVIYEDNQRPSGVPDRFSGSIDSSSNSASLTISGLKTEDEADYYCQSYDSSNHVVFGGGTKLTVL | > 80% | > 80% | > 80% | 
2 | mAb27 (H014) (antibody, V domains shown) VH: EVQLVQSGAEVKKPGATVKISCKVSGYSFSNYYIHWVKQAPGKSLEWIGYIDPFNGGTSDNLKFKGAATLTADTSTDTAYMELSSLRSEDTAVYYCARSEYDPYYVMDYWGQGTTVTVSS VL: IVLTQSPFQSVSPKEKVTITCRASQSISSNLHWYQQKPDQSPKLLIKYASQSISGIPSRFSGSGSGTDFTLTINSLEAEDFGIYFCQQTNFWPYIFGQGTKLEIL | > 80% | > 80% | > 80% | 
3 | mAb26 (4A8) (antibody, V domains shown) VH: EVQLVESGAEVKKPGASVKVSCKVSGYTLTELSMHWVRQAPGKGLEWMGGFDPEDGETMYAQKFQGRVTMTEDTSTDTAYMELSSLRSEDTAVYYCATSTAVAGTPDLFDYYYGMDVWGQGTTVTVSS VL: EIVMTQSPLSSPVTLGQPASISCRSSQSLVHSDGNTYLSWLQQRPGQPPRLLIYKISNRFSGVPDRFSGSGAGTDFTLKISRVEAEDVGVYYCTQATQFPYTFGQGTKVDIK |  |  |  | ≥ 20%
4 | mAb03 (imdevimab) (antibody, V domains shown) VH: QVQLVESGGGVVQPGRSLRLSCAASGFTFSNYAMYWVRQAPGKGLEWVAVISYDGSNKYYADSVKGRFTISRDNSKNTLYLQMNSLRTEDTAVYYCASGSDYGDYLLVYWGQGTLVTVSS VL: QSALTQPASVSGSPGQSITISCTGTSSDVGGYNYVSWYQQHPGKAPKLMIYDVSKRPSGVSNRFSGSKSGNTASLTISGLQSEDEADYYCNSLTSISTWVFGGGTKLTVL | > 80% | > 80% | > 80% | 
